13 molecules from patent US20250109215A1 (Xencor, published 2025) can be followed below.

For one test, the target named is T1, cyno CD3 (cynomolgus monkey, UniProt Q95LI5 22-117; Q95LI8 22-105).
T1 construct: The legend says only cyno CD3; also called cynomolgus monkey CD3
Nature of the test: SPR; cynomolgus monkey CD3-Fc (printed 'CD388-Fc', Sino Biological) covalently bound to the chip; test article passed over at 3.125, 12.5, 50 and 200 nM.

The target of a further test is T2, human CD3 (human, UniProt P07766 23-126; P04234 22-105).
T2 construct: The legend says only human CD3
T2 sequence (P07766 23-126, chain 1 of 2): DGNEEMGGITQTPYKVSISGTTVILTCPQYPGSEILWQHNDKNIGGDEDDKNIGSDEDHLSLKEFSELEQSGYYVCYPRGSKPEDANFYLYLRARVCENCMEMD
T2 sequence (P04234 22-105, chain 2 of 2): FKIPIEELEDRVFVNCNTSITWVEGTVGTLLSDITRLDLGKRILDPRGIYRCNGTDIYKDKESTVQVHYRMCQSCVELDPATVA
Nature of the test: SPR; human CD3-Fc (printed 'CD388-Fc', Sino Biological) covalently bound to the chip; test article passed over at 3.125, 12.5, 50 and 200 nM. (SPR reads the build-up and loss of mass on a sensor chip optically.)

Test [1] has as its target T3, human CD123 (human, UniProt P26951 19-305, limits assumed).
T3 construct: Construct on the chip is not described; also called CD123 chip
T3 sequence (looked up): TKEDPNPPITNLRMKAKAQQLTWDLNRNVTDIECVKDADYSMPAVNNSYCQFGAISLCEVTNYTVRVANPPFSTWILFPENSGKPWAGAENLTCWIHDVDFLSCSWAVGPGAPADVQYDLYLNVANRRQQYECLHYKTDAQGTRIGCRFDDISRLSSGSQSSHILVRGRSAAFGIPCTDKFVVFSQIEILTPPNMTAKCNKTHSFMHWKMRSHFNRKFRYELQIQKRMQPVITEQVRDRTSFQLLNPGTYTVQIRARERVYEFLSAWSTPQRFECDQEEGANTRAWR
As to the kind of experiment: off-rate screen of Fab-His on a Biacore CD123 chip (Example 3), relative to 7G3 H1L1 Fab.

In test [2] the target is T3, human CD123. As to the kind of experiment: Biacore, Fab-His on CD123 (Example 3; the sheet names no assay).

T1 sequence (Q95LI5 22-117, form in doubt, chain 1 of 2): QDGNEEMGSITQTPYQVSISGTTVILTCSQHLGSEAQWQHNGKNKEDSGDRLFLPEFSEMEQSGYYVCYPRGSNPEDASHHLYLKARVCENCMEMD
T1 sequence (Q95LI8 22-105, form in doubt, chain 2 of 2): as the sequence (P04234 22-105, chain 2 of 2) above, with I5V, N15K, I20V, S32T, D33N, I34N, T64A, S74N, V83L counted along it

B1: XENP13677 (bispecific antibody)
HC 1 (Fab-Fc): QVQLVQSGAEVKKPGASVKVSCKASGYTFTSYNMHWVRQAPGQRLEWMGAIYPGNGATSYSQKFQGRVTITADTSASTAYMELSSLRSEDTAVYYCARSYYMGGDWYFDVWGAGTLVTVSSASTKGPSVFPLAPSSKSTSGGTAALGCLVKDYFPEPVTVSWNSGALTSGVHTFPAVLQSSGLYSLSSVVTVPSSSLGTQTYICNVNHKPSDTKVDKKVEPKSCDKTHTCPPCPAPPVAGPSVFLFPPKPKDTLMISRTPEVTCVVVDVKHEDPEVKFNWYVDGVEVHNAKTKPREEEYNSTYRVVSVLTVLHQDWLNGKEYKCKVSNKALPAPIEKTISKAKGQPREPQVYTLPPSREEMTKNQVSLTCDVSGFYPSDIAVEWESDGQPENNYKTTPPVLDSDGSFFLYSKLTVDKSRWEQGDVFSCSVMHEALHNHYTQKSLSLSPGK
HC 2 (scFv-Fc): not shown
light: QIVLTQSPSSLSASVGDRVTITCRASWSVSYIHWFQQKPGKSPKPLIYATSNLASGVPVRFSGSGSGTDYTLTISSLQPEDFATYYCQQWTHNPPTFGGGTKVEIKRTVAAPSVFIFPPSDEQLKSGTASVVCLLNNFYPREAKVQWKVDNALQSGNSQESVTEQDSKDSTYSLSSTLTLSKADYEKHKVYACEVTHQGLSSPVTKSFNRGEC
notes: anti-CD3 scFv H1.30_L1.47; also called Anti-CD20 (C2B8_H1.202_L1.113) x Anti-CD3 (H1.30_L1.47) Fab-scFv-Fc
As to B1, the Kd in the test with cyno CD3 turned out to be 5.6 nM; with human CD3, 4.9 nM.

B2: XENP14389 (bispecific antibody)
HC 1 (Fab-Fc): QVQLVQSGAEVKKPGASVKVSCKASGYTFTSYNMHWVRQAPGQRLEWMGAIYPGNGATSYSQKFQGRVTITADTSASTAYMELSSLRSEDTAVYYCARSYYMGGDWYFDVWGAGTLVTVSSASTKGPSVFPLAPSSKSTSGGTAALGCLVKDYFPEPVTVSWNSGALTSGVHTFPAVLQSSGLYSLSSVVTVPSSSLGTQTYICNVNHKPSDTKVDKKVEPKSCDKTHTCPPCPAPPVAGPSVFLFPPKPKDTLMISRTPEVTCVVVDVKHEDPEVKFNWYVDGVEVHNAKTKPREEEYNSTYRVVSVLTVLHQDWLNGKEYKCKVSNKALPAPIEKTISKAKGQPREPQVYTLPPSREEMTKNQVSLTCDVSGFYPSDIAVEWESDGQPENNYKTTPPVLDSDGSFFLYSKLTVDKSRWEQGDVFSCSVMHEALHNHYTQKSLSLSPGK
HC 2 (scFv-Fc): not shown
light: QIVLTQSPSSLSASVGDRVTITCRASWSVSYIHWFQQKPGKSPKPLIYATSNLASGVPVRFSGSGSGTDYTLTISSLQPEDFATYYCQQWTHNPPTFGGGTKVEIKRTVAAPSVFIFPPSDEQLKSGTASVVCLLNNFYPREAKVQWKVDNALQSGNSQESVTEQDSKDSTYSLSSTLTLSKADYEKHKVYACEVTHQGLSSPVTKSFNRGEC
notes: anti-CD3 scFv H1.32_L1.47; also called Anti-CD20 (C2B8_H1.202_L1.113) x Anti-CD3 (H1.32_L1.47) Fab-scFv-Fc
In the case of B2, the Kd with cyno CD3 came out at 45 nM; with human CD3, 44 nM.

B3: XENP14392 (bispecific antibody)
HC 1 (Fab-Fc): QVQLVQSGAEVKKPGASVKVSCKASGYTFTSYNMHWVRQAPGQRLEWMGAIYPGNGATSYSQKFQGRVTITADTSASTAYMELSSLRSEDTAVYYCARSYYMGGDWYFDVWGAGTLVTVSSASTKGPSVFPLAPSSKSTSGGTAALGCLVKDYFPEPVTVSWNSGALTSGVHTFPAVLQSSGLYSLSSVVTVPSSSLGTQTYICNVNHKPSDTKVDKKVEPKSCDKTHTCPPCPAPPVAGPSVFLFPPKPKDTLMISRTPEVTCVVVDVKHEDPEVKFNWYVDGVEVHNAKTKPREEEYNSTYRVVSVLTVLHQDWLNGKEYKCKVSNKALPAPIEKTISKAKGQPREPQVYTLPPSREEMTKNQVSLTCDVSGFYPSDIAVEWESDGQPENNYKTTPPVLDSDGSFFLYSKLTVDKSRWEQGDVFSCSVMHEALHNHYTQKSLSLSPGK
HC 2 (scFv-Fc): not shown
light: QIVLTQSPSSLSASVGDRVTITCRASWSVSYIHWFQQKPGKSPKPLIYATSNLASGVPVRFSGSGSGTDYTLTISSLQPEDFATYYCQQWTHNPPTFGGGTKVEIKRTVAAPSVFIFPPSDEQLKSGTASVVCLLNNFYPREAKVQWKVDNALQSGNSQESVTEQDSKDSTYSLSSTLTLSKADYEKHKVYACEVTHQGLSSPVTKSFNRGEC
notes: anti-CD3 scFv H1.89_L1.47; also called Anti-CD20 (C2B8_H1.202_L1.113) x Anti-CD3 (H1.89_L1.47) Fab-scFv-Fc
In the case of B3, the Kd with cyno CD3 amounted to 110 nM; in the test with human CD3 it was 120 nM.

B4: 13735 7G3_H1.86_L1_Fab_His (Fab, V domains shown)
VH: QVQLVQSGAEVKKPGASVKVSCKASGYTFTDYYMKWVRQAPGQSLEWMGDIIPSNGATFYNQKFKGKATLTVDRSTSTAYMELSSLRSEDTAVYYCTRSHLLRASWFAYWGQGTLVTVSS
VL: DFVMTQSPDSLAVSLGERATINCKSSQSLLNSGNQKNYLTWYQQKPGQPPKLLIYWASTRESGVPDRFTGSGSGTDFTLTISSLQAEDVAVYYCQNDYSYPYTFGGGTKLEIKR
notes: also called XENP13735; copies: 1 + 1
Take B4: the “Fold improvement in off-rate vs. H1L1” value with human CD123 [1] is 4.61 fold.

B5: 13737 7G3_H1.88_L1_Fab_His (Fab, V domains shown)
VH: QVQLVQSGAEVKKPGASVKVSCKASGYTFTDYYMKWVRQAHGQSLEWMGDIIPSNGATFYNQKFQGRVTMTVDRSTSTAYMELSSLRSEDTAVYYCTRSHLLRASWFAYWGQGTLVTVSS
VL: DFVMTQSPDSLAVSLGERATINCKSSQSLLNSGNQKNYLTWYQQKPGQPPKLLIYWASTRESGVPDRFTGSGSGTDFTLTISSLQAEDVAVYYCQNDYSYPYTFGGGTKLEIKR
notes: also called XENP13737; copies: 1 + 1
Take B5: in the test with human CD123 [1], the “Fold improvement in off-rate vs. H1L1” value was found to be 0.96 fold.

B6: 13963 7G3_H1.109_L1_Fab_His (Fab, V domains shown)
VH: QVQLQQSGAEVKKPGASVKVSCKASGYTFTDYYMKWVKQSHGKSLEWMGDIIPSNGATFYNQKFKGKATLTVDRSTSTAYMELSSLRSEDTAVYYCARSHLLRASWFAYWGQGTLVTVSS
VL: DFVMTQSPDSLAVSLGERATINCKSSQSLLNSGNQKNYLTWYQQKPGQPPKLLIYWASTRESGVPDRFTGSGSGTDFTLTISSLQAEDVAVYYCQNDYSYPYTFGGGTKLEIKR
notes: also called XENP13963
In the case of B6, in the test with human CD123 [2], the Ka was found to be 1.35e+10 M⁻¹, binding was characterised by a dissociation constant (Kd) of 0.0742 nM, the koff is 5.53e-05 s⁻¹ and the association rate constant (kon) worked out at 745000 M⁻¹ s⁻¹.

B7: 13743 7G3_H1.94_L1_Fab_His (Fab, V domains shown)
VH: QVQLVQSGAEVKKPGASVKVSCKASGYTFTDYYMKWVKQSHGKSLEWMGDIIPSNGATFYNQKFQGRVTMTVDRSTSTAYMELSSLRSEDTAVYYCTRSHLLRASWFAYWGQGTLVTVSS
VL: DFVMTQSPDSLAVSLGERATINCKSSQSLLNSGNQKNYLTWYQQKPGQPPKLLIYWASTRESGVPDRFTGSGSGTDFTLTISSLQAEDVAVYYCQNDYSYPYTFGGGTKLEIKR
notes: also called XENP13743; copies: 1 + 1
Regarding B7, the “Fold improvement in off-rate vs. H1L1” value with human CD123 [1] was 0.65 fold.

B8: 13740 7G3_H1.91_L1_Fab_His (Fab, V domains shown)
VH: QVQLVQSGAEVKKPGASVKVSCKASGYTFTDYYMKWVRQAPGQSLEWMGDIIPSNGATFYNQKFQGRVTMTVDRSTSTAYMHLSSLRSEDTAVYYCTRSHLLRASWFAYWGQGTLVTVSS
VL: DFVMTQSPDSLAVSLGERATINCKSSQSLLNSGNQKNYLTWYQQKPGQPPKLLIYWASTRESGVPDRFTGSGSGTDFTLTISSLQAEDVAVYYCQNDYSYPYTFGGGTKLEIKR
notes: also called XENP13740; copies: 1 + 1
Take B8: the “Fold improvement in off-rate vs. H1L1” value with human CD123 [1] is 1.04 fold.

B9: 13741 7G3_H1.92_L1_Fab_His (Fab, V domains shown)
VH: QVQLVQSGAEVKKPGASVKVSCKASGYTFTDYYMKWVRQAPGQSLEWMGDIIPSNGATFYNQKFQGRVTMTVDRSTSTAYMELSSLTSEDTAVYYCTRSHLLRASWFAYWGQGTLVTVSS
VL: DFVMTQSPDSLAVSLGERATINCKSSQSLLNSGNQKNYLTWYQQKPGQPPKLLIYWASTRESGVPDRFTGSGSGTDFTLTISSLQAEDVAVYYCQNDYSYPYTFGGGTKLEIKR
notes: also called XENP13741; copies: 1 + 1
Turning to B9, the “Fold improvement in off-rate vs. H1L1” value in the test with human CD123 [1] is 1.89 fold.

B10: 13961 7G3_H1.107_L1_Fab_His (Fab, V domains shown)
VH: QVQLQQSGAEVKKPGASVKVSCKASGYTFTDYYMKWVRQAPGQSLEWMGDIIPSNGATFYNQKFKGKATLTVDRSTSTAYMELSSLRSEDTAVYYCARSHLLRASWFAYWGQGTLVTVSS
VL: DFVMTQSPDSLAVSLGERATINCKSSQSLLNSGNQKNYLTWYQQKPGQPPKLLIYWASTRESGVPDRFTGSGSGTDFTLTISSLQAEDVAVYYCQNDYSYPYTFGGGTKLEIKR
notes: also called XENP13961
In the test with human CD123 [2], B10 yielded a Ka of 6.79e+09 M⁻¹, a Kd of 0.147 nM, a koff of 8.84e-05 s⁻¹ and a kon of 600000 M⁻¹ s⁻¹.

B11: 13738 7G3_H1.89_L1_Fab_His (Fab, V domains shown)
VH: QVQLVQSGAEVKKPGASVKVSCKASGYTFTDYYMKWVRQAPGQSLEWIGDIIPSNGATFYNQKFQGRVTMTVDRSTSTAYMELSSLRSEDTAVYYCTRSHLLRASWFAYWGQGTLVTVSS
VL: DFVMTQSPDSLAVSLGERATINCKSSQSLLNSGNQKNYLTWYQQKPGQPPKLLIYWASTRESGVPDRFTGSGSGTDFTLTISSLQAEDVAVYYCQNDYSYPYTFGGGTKLEIKR
notes: also called XENP13738; copies: 1 + 1
With B11, the “Fold improvement in off-rate vs. H1L1” value with human CD123 [1] was 1.29 fold.

B12: 13855 7G3_H1_L1.57_Fab_His (Fab, V domains shown)
VH: QVQLVQSGAEVKKPGASVKVSCKASGYTFTDYYMKWVRQAPGQSLEWMGDIIPSNGATFYNQKFQGRVTMTVDRSTSTAYMELSSLRSEDTAVYYCTRSHLLRASWFAYWGQGTLVTVSS
VL: DFVMTQSPDSLAVSLGERATINCKSSQSLLNTGNQKNYLTWYQQKPGQPPKLLIYWASTRESGVPDRFTGSGSGTDFTLTISSLQAEDVAVYYCQNDYSYPYTFGGGTKLEIKR
notes: also called XENP13855
For the molecule B12, the “Fold improvement in off-rate vs. H1L1” value in the test with human CD123 [1] turned out to be 0.84 fold.

B13: 13965 7G3_H1.107_L1.57_Fab_His (Fab, V domains shown)
VH: QVQLQQSGAEVKKPGASVKVSCKASGYTFTDYYMKWVRQAPGQSLEWMGDIIPSNGATFYNQKFKGKATLTVDRSTSTAYMELSSLRSEDTAVYYCARSHLLRASWFAYWGQGTLVTVSS
VL: DFVMTQSPDSLAVSLGERATINCKSSQSLLNTGNQKNYLTWYQQKPGQPPKLLIYWASTRESGVPDRFTGSGSGTDFTLTISSLQAEDVAVYYCQNDYSYPYTFGGGTKLEIKR
notes: also called XENP13965
B13: in the test with human CD123 [2], the Ka is 1.6e+10 M⁻¹, the Kd is 0.0624 nM, the off-rate (koff) was 3.82e-05 s⁻¹ and the kon was 612000 M⁻¹ s⁻¹.

By Kd is commonly meant the free concentration of one partner at which half of the binding sites on the other are occupied at equilibrium, for simple one-to-one binding. Broadly, the koff is a measure of how fast the partners let go of each other. By kon is commonly meant the rate constant with which the complex forms.
